# Data reported in paper PMC7859239, “Conserved strategies of RNA polymerase I hibernation and activation” (Nature Communications, 2021).
# B1: S. pombe Pol I subunit A135 (natural protein, UniProt Q9P7X8 1-1174, looked up)
# chain: MSFQTLERERTFKNPPKDGTSFPDLQKAVKPHVDSFNALTNAGLLNYAVKEIGEKCAFDSITQEEGGALKFGNKISFRVDEVQIAKPMLSSRERSSINRKVYPAEARERLTTYKSRLVLKFSWSVNGGPRQSEMREVGMIPIMVRSNRCHLEGLSPAELIAHKEESEEMGGYFIVNGIEKLIRMLILPKRNHPTAIIRPSFANRGTSYSQYGLSIRCVRPDQSSLTNTLHYLNNGVTMFRFHWRKNEYLIPSMMILKALLETSDKEIFEGIVGKDLGNTFLTDRVELMLRAYKSYGLYSQTETLQYLGSKFRVVLGVAEDLTDVEVGRFLLQKVVLVHLREAKDKFRLLLFMIRKLYALVAGECCADNPDSPQHQEILLGGFLYGQILKEKIEDWLNSIRAQINLDVRRSAPGVDFSDRKYLTRVFSKINNDIGTKLQYFLSTGNLVSNTGLDLQQATGYTVVAEKLNFYRFLSHFRMVHRGAFFAELKTTTVRKLLPEAWGFMCPVHTPDGSPCGLLNHLARKCEIVTHPSDVSQIPSLLLSLGVDPPSVVGHESGWGCVQLDGKIVGWCTYKLAKHVADVLRLMKIEYAVKLRNGTATEPAKVPLDLEIGYVPPSHNGQYPGLYLFSNPARMVRPVKHISTGELDMLGPFEQVYMDIACFPKEIVPKVSTHVEYSPTNVLSIVANMTPFSDFNQSPRNMYQCQMGKQTMGTPGTALRYRTDNKLYRLQTGQTPVVRPKLHNTYGLDHYPNGTNAVVAVISYTGYDMEDAMILNKSAHERGFGYGTVYKGESFDLSQKRRRGEPVVHHFGFAPGSTPRREWLQKLDADGLPFIGIKLEDGDPIVAYYDESTGQNFIETYHGTEPGFVDEVRLLGNDVGDSECQQIHVKLRITRSPIIGDKFSSRHGQKGICSQKWPTVDMPFTESGMQPDIIINPHAFPSRMTIGMFIESLAGKAGACHGLAQDSTPFIYSEQQTAADYFGEQLVKAGYNYHGNEPMYSGITGQEMKADIYIGVVYYQRLRHMVSDKFQVRTTGPIHNLTRQPVKGRKRAGGIRFGEMERDAVIGHGTSFLMQDRLMNCSDYAQSWVCRDCGSIISIMSTISMNGVGSASEVRCRSCAKPALGLEDTSDIWQDGSGKKFVGGTNTTLIALPSVFNYLTAELTAMNIKMMLEVK
# notes: RNA polymerase I subunit A135, S. pombe; source: endogenous, S. pombe, purified as part of Pol I (Ni-NTA, MonoQ, MonoS)
# Columns and labels:
# [1] = molecular target: T1, S. pombe Pol I subunit A190 (Schizosaccharomyces pombe (endogenous …, UniProt P15398 1-1689)); test: cryo-EM structure; dimer particles in the 'monomer' dataset of BS3-crosslinked Sp Pol I after SEC (5 mM HEPES pH 7.8, 1 mM MgCl2, 10 µM ZnCl2, 150 mM KCl, 5 mM DTT); C2 symmetry imposed; 4.5 Å; model by placing two monomers and rigid body fitting of subdomains; settings: both partners purified
# T1 construct: RNA polymerase I subunit A190, S. pombe; source: endogenous, S. pombe, purified as part of Pol I (Ni-NTA, MonoQ, MonoS)
# [2] = molecular target: B1; test: as above; settings: both partners purified
# T1 sequence (P15398 whole entry): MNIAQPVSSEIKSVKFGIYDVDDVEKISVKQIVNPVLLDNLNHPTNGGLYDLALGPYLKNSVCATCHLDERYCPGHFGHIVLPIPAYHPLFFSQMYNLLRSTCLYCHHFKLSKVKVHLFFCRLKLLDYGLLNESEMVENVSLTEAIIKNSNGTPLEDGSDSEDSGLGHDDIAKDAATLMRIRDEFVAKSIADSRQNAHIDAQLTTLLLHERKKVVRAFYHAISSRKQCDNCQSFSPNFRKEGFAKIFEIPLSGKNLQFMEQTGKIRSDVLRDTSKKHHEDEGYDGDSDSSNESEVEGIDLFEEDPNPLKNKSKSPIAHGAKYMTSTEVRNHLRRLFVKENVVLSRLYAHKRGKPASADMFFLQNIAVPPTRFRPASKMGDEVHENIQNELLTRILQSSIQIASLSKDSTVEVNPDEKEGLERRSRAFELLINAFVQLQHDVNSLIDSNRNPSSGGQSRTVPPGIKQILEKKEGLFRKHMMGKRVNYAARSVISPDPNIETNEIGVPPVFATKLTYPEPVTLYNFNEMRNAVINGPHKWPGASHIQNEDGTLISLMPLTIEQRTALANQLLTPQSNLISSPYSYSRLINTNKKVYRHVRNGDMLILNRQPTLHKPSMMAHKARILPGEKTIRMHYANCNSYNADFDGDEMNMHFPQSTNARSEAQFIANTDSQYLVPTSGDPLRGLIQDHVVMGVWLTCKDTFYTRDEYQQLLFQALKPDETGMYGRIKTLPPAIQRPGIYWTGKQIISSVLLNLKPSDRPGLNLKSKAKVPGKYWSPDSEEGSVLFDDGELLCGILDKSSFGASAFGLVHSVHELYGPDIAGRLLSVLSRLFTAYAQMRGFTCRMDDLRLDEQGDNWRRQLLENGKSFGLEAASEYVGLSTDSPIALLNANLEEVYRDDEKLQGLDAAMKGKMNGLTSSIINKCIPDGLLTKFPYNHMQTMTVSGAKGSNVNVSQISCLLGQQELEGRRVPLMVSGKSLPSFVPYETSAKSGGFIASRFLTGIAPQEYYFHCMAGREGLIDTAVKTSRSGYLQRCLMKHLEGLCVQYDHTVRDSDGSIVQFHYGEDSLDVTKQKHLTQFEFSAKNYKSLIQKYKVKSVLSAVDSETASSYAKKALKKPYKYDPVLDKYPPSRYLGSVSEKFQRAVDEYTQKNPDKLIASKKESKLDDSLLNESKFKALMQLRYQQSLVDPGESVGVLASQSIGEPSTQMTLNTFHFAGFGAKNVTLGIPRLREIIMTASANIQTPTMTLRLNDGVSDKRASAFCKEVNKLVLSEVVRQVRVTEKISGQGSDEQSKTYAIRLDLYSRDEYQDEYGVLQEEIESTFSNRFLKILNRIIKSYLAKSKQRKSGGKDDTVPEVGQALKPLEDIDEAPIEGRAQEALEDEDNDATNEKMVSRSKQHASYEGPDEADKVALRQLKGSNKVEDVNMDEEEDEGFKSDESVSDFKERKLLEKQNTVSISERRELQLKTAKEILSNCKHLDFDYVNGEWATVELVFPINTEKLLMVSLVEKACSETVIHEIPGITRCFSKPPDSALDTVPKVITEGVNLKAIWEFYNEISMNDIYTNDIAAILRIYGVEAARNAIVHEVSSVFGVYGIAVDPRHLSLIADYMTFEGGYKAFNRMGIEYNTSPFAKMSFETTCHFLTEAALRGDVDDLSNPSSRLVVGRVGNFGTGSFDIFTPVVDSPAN
Binder,binding result [1],binding result [2]
"S. pombe Pol I subunit AC40 with C-terminal flag-his tag (natural protein, UniProt O94616 1-348, looked up, RNA polymerase I and III subunit AC40, S. pombe; source: endogenous, genomically tagged S. pombe strain, purified as part of Pol I (Ni-NTA, MonoQ, MonoS); not shown: 10xHis, C-terminal, kept) MAAVDRSRTEISVLSDRVTDVGSVDFPGYYFDEDNIWDLDKFKKNLKVSITSLDQETMVFEISGIDASIANAFRRILIAEIPTLAFEFVYIINNTSIIQDEVLSHRIGLVPISADPDMFKWFQHPLPGQEATHTDYDTVVFSLNKKCEFNKNAATDEKDPKRLYVNSEVYSGDLIWKPQGRQEERFADNPIRVVNPDIVVAKLRPGQEIDLEAHAILGIGQDHAKFSPVATASYRLLPTIHILSPIEGEDAVKFQKCFPKGVIELEEGPDGKKQARVADVRKDTVSRECLRHPEFADKVQLGRVRDHYLFSVESTGIMKPDVLFIKSIAVLKSKCLAVKSSLQNISSD",binds,–
"S. pombe common RNA polymerase subunit Rpb12 (natural protein, UniProt P48011 1-63, looked up, general (common) RNA polymerase subunit Rpb12, S. pombe; source: endogenous, S. pombe, purified as part of Pol I (Ni-NTA, MonoQ, MonoS)) MNHPTSTGGTAFNPPRPATMIYLCADCGARNTIQAKEVIRCRECGHRVMYKMRTKRMVQFEAR",binds,–
"S. pombe Pol I subunit A43 (natural protein, UniProt O43036 1-173, looked up, RNA polymerase I stalk subunit A43, S. pombe; Lacks the connector domain of the S. cerevisiae protein; also called stalk subunit A43; source: endogenous, S. pombe, purified as part of Pol I (Ni-NTA, MonoQ, MonoS)) MPDLSLYKQTVDLYLSIAPGHSRDPLNAIQEHMDSMILSKLPRINGIVLAYDNIRFLEKSAKVMYDSPFSFIWVRVDVLVFSPKKGDCLEGKINLVSPSHIGLLILGIFNASIPRKSIPKDWIFIEPDTTEEQGRWKTNDGNILEPGKDLEFVVDGIQREAGLTMVQGTLANS",–,binds
B1,binds,–
